Data taken from paper PMC3737525, “Structural and mechanistic basis of anti-termination of Rho-dependent transcription termination by bacteriophage P4 capsid protein Psu” (Nucleic Acids Research, 2013).

How the values were obtained:
[1] = biological target: T1, C-terminal, HMK-tagged P167L Rho, 32P-labelled (UniProt P0AG30 1-419, P167L, radiolabelled with [γ-32P]ATP in the HMK tag using protein kinase A); test: Fe-BABE hydroxyl-radical protein cleavage; 0.2 µM 32P-labelled HMK-tagged P167L Rho and 2.5 µM Fe-BABE-labelled Psu, 37°C 30 min, 50 mM MOPS, 120 mM NaCl, 0.1 mM EDTA, 10 mM MgCl2, 10% glycerol, pH 8.0, 1 mM ATP; cleavage started with 4 mM ascorbate and hydrogen peroxide; SDS-PAGE autoradiogram; details: both partners purified
T1 construct: Transcription termination factor Rho; also called P^32-labelled HMK-tagged P167L Rho; end-labelled Rho; not shown: HMK (heart muscle protein kinase) tag, C-terminal, kept

[2] = biological target: T1, C-terminal, HMK-tagged P167L Rho, …; test: limited trypsin digestion (protein foot-printing); 0.2 µM 32P-labelled HMK-tagged P167L Rho with 2.5 µM WT Psu in transcription buffer with 1 mM ATP, 10 min 37°C, then increasing trypsin for 1 min; gradient SDS-PAGE autoradiogram; details: both partners purified
[3] = biological target: T2, Single Cys derivative S346C of P167L Rho (UniProt P0AG30 1-419, P167L | C202S | S346C); test: cross-linking; sulpho-LC-SPDP (cysteine to amine): SPDP-derivatized 32P-labelled Psu (~0.5 µM) with single-Cys Rho derivatives (~2 µM), 10 min 25°C, phosphate buffer (100 mM NaH2PO4, 150 mM NaCl, 1 mM EDTA, pH 7.5); non-reducing 12% PAGE; species sensitive to DTT; details: both partners purified
T2 construct: Transcription termination factor Rho; natural cysteine removed, made on P167L Rho; also called S346C Rho

[4] = biological target: T3, Single Cys derivative S153C of P167L Rho (UniProt P0AG30 1-419, P167L | C202S | S153C); test: as above; details: both partners purified
T3 construct: Transcription termination factor Rho; natural cysteine removed, made on P167L Rho; also called S153C Rho

[5] = biological target: the molecule itself; test: as above
[6] = biological target: T4, TMRA-labelled S346C Rho (on P167L Rho) (UniProt P0AG30 1-419, P167L | C202S | S346C, tetramethylrhodamine-5-maleimide (TMRA) on the single cysteine at 346); test: FRET or BRET; fluorescein-labelled Psu (50 nM) and TMRA-labelled Rho (100 nM), 25 mM Tris-HCl pH 8.0, 50 mM KCl, 5 mM MgCl2, 25°C, 15 min; excitation 470 nm, emission enhancement at 570 nm; details: both partners purified
T4 construct: Transcription termination factor Rho; natural cysteine removed, made on P167L Rho; also called TMRA–Rho S346C; source: labelled with tetramethylrhodamine-5-maleimide, excess dye removed

[7] = biological target: T5, TMRA-labelled S153C Rho (on P167L Rho) (UniProt P0AG30 1-419, P167L | C202S | S153C, tetramethylrhodamine-5-maleimide (TMRA) on the single cysteine at 153); test: as above; details: both partners purified
T5 construct: Transcription termination factor Rho; natural cysteine removed, made on P167L Rho; also called TMRA–Rho S153C; source: labelled with tetramethylrhodamine-5-maleimide, excess dye removed
T5 sequence (P0AG30 whole entry S153C/P167L/C202S): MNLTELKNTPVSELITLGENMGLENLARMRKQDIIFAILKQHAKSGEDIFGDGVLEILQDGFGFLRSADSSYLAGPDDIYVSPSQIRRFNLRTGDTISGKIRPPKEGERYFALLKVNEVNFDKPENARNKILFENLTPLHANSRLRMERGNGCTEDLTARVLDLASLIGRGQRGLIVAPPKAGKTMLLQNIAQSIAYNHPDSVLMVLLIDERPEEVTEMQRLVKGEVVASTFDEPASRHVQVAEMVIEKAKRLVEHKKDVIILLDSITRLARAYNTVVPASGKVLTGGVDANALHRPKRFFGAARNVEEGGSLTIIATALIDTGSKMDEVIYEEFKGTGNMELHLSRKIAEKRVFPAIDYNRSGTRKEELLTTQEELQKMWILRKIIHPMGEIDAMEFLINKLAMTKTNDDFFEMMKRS

T1 sequence (P0AG30 whole entry P167L): as the sequence (P0AG30 whole entry S153C/P167L/C202S) above, with C153S, S202C counted along it
T4 sequence (P0AG30 whole entry P167L/C202S/S346C): as the sequence (P0AG30 whole entry S153C/P167L/C202S) above, with C153S, S346C counted along it
T3 sequence (P0AG30 whole entry S153C/P167L/C202S): as the sequence (P0AG30 whole entry S153C/P167L/C202S) above
T2 sequence (P0AG30 whole entry P167L/C202S/S346C): as the sequence (P0AG30 whole entry S153C/P167L/C202S) above, with C153S, S346C counted along it

B1: Fe-BABE-conjugated Psu S181C (natural protein, bacteriophage P4)
chain: MESTALQQAFDTSQNNKAAWLQRKNELAAAEQEYLRLLSGEGRNVSRLDELRNIIEVRKWQVNQAAGRYIRSHEAVQHISIRDRLNDFMQQHGTALAAALAPELMGYSELTAIARNSAIQRATDALREALLSWLAKGEKINYSAQDSDILTTIGFRPDVASVDDSREKFTPAQNMIFSRKCAQLASRQSV
modifications: Fe-BABE conjugated to the single cysteine at 181
notes: Psu (polarity suppressor), capsid-decoration protein of bacteriophage P4; natural cysteines removed; also called Fe-BABE-labelled Psu; source: conjugated with 5-fold molar excess of Fe-BABE (Pierce), desalted
- binding result [1]: binds

B2: WT Psu (in vitro assays) (natural protein, bacteriophage P4)
chain: MESTALQQAFDTCQNNKAAWLQRKNELAAAEQEYLRLLSGEGRNVSRLDELRNIIEVRKWQVNQAAGRYIRSHEAVQHISIRDRLNDFMQQHGTALAAALAPELMGYSELTAIARNCAIQRATDALREALLSWLAKGEKINYSAQDSDILTTIGFRPDVASVDDSREKFTPAQNMIFSRKSAQLASRQSV
notes: Psu (polarity suppressor), 21 kDa capsid-decoration protein of bacteriophage P4; purification may stand in the Supplementary Methods
- binding result [2]: binds

B3: SPDP-derivatized, HMK-tagged non-cysteine derivative of Psu (C13S and C117S) (natural protein, bacteriophage P4)
chain: MESTALQQAFDTSQNNKAAWLQRKNELAAAEQEYLRLLSGEGRNVSRLDELRNIIEVRKWQVNQAAGRYIRSHEAVQHISIRDRLNDFMQQHGTALAAALAPELMGYSELTAIARNSAIQRATDALREALLSWLAKGEKINYSAQDSDILTTIGFRPDVASVDDSREKFTPAQNMIFSRKSAQLASRQSV
modifications: 32P end-label in the HMK tag; primary amines (lysines) labelled with sulpho-LC-SPDP
notes: Psu (polarity suppressor), capsid-decoration protein of bacteriophage P4; natural cysteines removed; also called SPDP-labelled Psu; radiolabelled Psu; source: labelled with sulpho-LC-SPDP (Pierce), desalted
- binding result [3]: binds
- binding result [4]: binds
- stoichiometry N [5]: 2

B4: Fluorescein-labelled Psu S181C (natural protein, bacteriophage P4)
chain: MESTALQQAFDTSQNNKAAWLQRKNELAAAEQEYLRLLSGEGRNVSRLDELRNIIEVRKWQVNQAAGRYIRSHEAVQHISIRDRLNDFMQQHGTALAAALAPELMGYSELTAIARNSAIQRATDALREALLSWLAKGEKINYSAQDSDILTTIGFRPDVASVDDSREKFTPAQNMIFSRKCAQLASRQSV
modifications: fluorescein-5-maleimide on the single cysteine at 181
notes: Psu (polarity suppressor), capsid-decoration protein of bacteriophage P4; natural cysteines removed; also called FL-labelled S181C Psu; source: labelled with fluorescein-5-maleimide, excess dye removed
- binding result [6]: binds
- binding result [7]: binds

B5: Fluorescein-labelled Psu S161C (natural protein, bacteriophage P4)
chain: MESTALQQAFDTSQNNKAAWLQRKNELAAAEQEYLRLLSGEGRNVSRLDELRNIIEVRKWQVNQAAGRYIRSHEAVQHISIRDRLNDFMQQHGTALAAALAPELMGYSELTAIARNSAIQRATDALREALLSWLAKGEKINYSAQDSDILTTIGFRPDVACVDDSREKFTPAQNMIFSRKSAQLASRQSV
modifications: fluorescein-5-maleimide on the single cysteine at 161
notes: Psu (polarity suppressor), capsid-decoration protein of bacteriophage P4; natural cysteines removed; also called FL-labelled S161C Psu; source: labelled with fluorescein-5-maleimide, excess dye removed
- binding result [6]: binds
- binding result [7]: binds
